These results are taken from patent US5856161.

In series [1] the target is p60-Tumor Necrosis Factor Receptor Associated Kinase (p60TRAK). The series is described as follows: U937 lysate depleted with p13^suc1 -agarose or GST beads, supernatant precipitated with GST-p60Δ15, kinase assay with histone H1.
For series [2] the target is unchanged.
In another series the target is T1, p13^suc1 -agarose (UniProt P08463).
T1 sequence: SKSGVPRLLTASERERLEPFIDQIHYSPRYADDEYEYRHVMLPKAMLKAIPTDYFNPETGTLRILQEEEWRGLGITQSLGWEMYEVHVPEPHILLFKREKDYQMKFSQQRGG
The series is described as follows: U937 lysate depleted with p13^suc1 -agarose or GST beads, supernatant precipitated with GST-p60Δ8 or GST-p60Δ15, kinase assay with Rb^110.

Series [3] deals with GST-p60Δ4 (Homo sapiens (Human)) (UniProt P19438).
Series [4] addresses GST-p60Δ5 (Homo sapiens (Human)) (UniProt P19438).

Consider p13^suc1 -agarose (from UniProt P08463), for which, in series [1], the depletion of p60TRAK activity is 50%.

The substance p49^WEE1 (from UniProt P30291) (enzyme) yielded a histone kinase activity of p60TRAK in series [2] above 70%.

As to “p60-Tumor Necrosis Factor Receptor Associated Kinase (p60TRAK)”, the “reduction of Rb^110 phosphorylation by p60TRAK after depletion” value in the series with p13^suc1 -agarose is listed as “phosphorylation of the retinoblastoma protein (Rb^110) by p60TRAK after depletion with p13^suc1 -agarose was reduced by greater than 60%”.

Regarding “p60-Tumor Necrosis Factor Receptor Associated Kinase (p60TRAK) (enzyme)”, the phosphorylation in an in vitro kinase assay in series [3] and in series [4] was 50% throughout.
